Source: paper PMC11098746 (2024)

B1: ADP114 (protein)
chain: MVMSVGLSLLLPLWGRTFLLLLSVVMAQSHWPSEPSEAVRDWENQLEASMHSVLSDLHEAVPTVVGIPDGTAVVGRSFRVTIPTDLIASSGDIIKVSAAGKEALPSWLHWDSQSHTLEGLPLDTDKGVHYISVSATRLGANGSHIPQTSSVFSIEVYPEDHSDLQSVRTASPDPGEVVSSACAADEPVTVLTVILDADLTKMTPKQRIDLLHRMRSFSEVELHNMKLVPVVNNRLFDMSAFMAGPGNPKKVVENGALLSWKLGCSLNQNSVPDIHGVEAPAREGAMSAQLGYPVVGWHIANKKPPLPKRVRRQIHATPTPVTAIGPPTTAIQEPPSRIVPTPTSPAIAPPTETMAPPVRDPVPGKPTVTIRTRGAIIQTPTLGPIQPTRVSEAGTTVPGQIRPTMTIPGYVEPTAVATPPTTTTKKPRVSTPKPATPSTDSTTTTTRRPTKKPRTPRPVPRVTTKVSITRLETASPPTRIRTTTSGVPRGGEPNQRPELKNHIDRVDAWVGTYFEVKIPSDTFYDHEDTTTDKLKLTLKLREQQLVGEKSWVQFNSNSQLMYGLPDSSHVGKHEYFMHATDKGGLSAVDAFEIHVHRRPQGDRAPARFKAKFVGDPALVLNDIHKKIALVKKLAFAFGDRNCSTITLQNITRGSIVVEWTNNTLPLEPCPKEQIAGLSRRIAEDDGKPRPAFSNALEPDFKATSITVTGSGSCRHLQFIPVVPPRRVPSEAPPTEVPDRDPEKSSEDDVYLHT
modifications: bait human Fc-tagged dimer
B2: ADP107 (protein)
chain: MGTKAQVERKLLCLFILAILLCSLALGSVTVHSSEPEVRIPENNPVKLSCAYSGFSSPRVEWKFDQGDTTRLVCYNNKITASYEDRVTFLPTGITFKSVTREDTGTYTCMVSEEGGNSYGEVKVKLIVLVPPSKPTVNIPSSATIGNRAVLTCSEQDGSPPSEYTWFKDGIVMPTNPKSTRAFSNSSYVLNPTTGELVFDPLSASDTGEYSCEARNGYGTPMTSNAVRMEAVERNVGV
modifications: bait human Fc-tagged dimer
B3: ADP106 (protein)
chain: MAGGRCGPQLTALLAAWIAAVAATAGPEEAALPPEQSRVQPMTASNWTLVMEGEWMLKFYAPWCPSCQQTDSEWEAFAKNGEILQISVGKVDVIQEPGLSGRFFVTTLPAFFHAKDGIFRRYRGPGIFEDLQNYILEKKWQSVEPLTGWKSPASLTMSGMAGLFSISGKIWHLHNYFTVTLGIP
modifications: bait human Fc-tagged dimer
B4: ADP116 (protein)
chain: MVTLQTWLVQALFIFLTTESTGELLDPCGYISPESPVVQLHSNFTAVCVLKEKCMDYFHVNANYIVWKTNHFTIPKEQYTIINRTASSVTFTDIASLNIQLTCNILTFGQLEQNVYGITIISGLPPEKPKNLSCIVNEGKKMRCEWDGGRETHLETNFTLKSEWATHKFADCKAKRDTPTSCTVDYSTVYFVNIEVWVEAENALGKVTSDHINFDPVYKVKPNPPHNLSVINSEELSSILKLTWTNPSIKSVIILKYNIQYRTKDASTWSQIPPEDTASTRSSFTVQDLKPFTEYVFRIRCMKEDGKGYWSDWSEEASGITYEDRPSKAPSFWYKIDPSHTQGYRTVQLVWKTLPPFEANGKILDYEVTLTRWKSHLQNYTVNATKLTVNLTNDRYLATLTVRNLVGKSDAAVLTIPACDFQATHPVMDLKAFPKDNMLWVEWTTPRESVKKYILEWCVLSDKAPCITDWQQEDGTVHRTYLRGNLAESKCYLITVTPVYADGPGSPESIKAYLKQAPPSKGPTVRTKKVGKNEAVLEWDQLPVDVQNGFIRNYTIFYRTIIGNETAVNVDSSHTEYTLSSLTSDTLYMVRMAAYTDEGGKDGPEFTFTTPKFAQGEIE
modifications: bait human Fc-tagged dimer
B5: ADP307 (protein)
chain: MALSVPLLLGLLGLAVAEPAVYFKEQFLDGDGWTSRWIESKHKSDFGKFVLSSGKFYGDEEKDKGLQTSQDARFYALSASFEPFSNKGQTLVVQFTVKHEQNIDCGGGYVKLFPNSLDQTDMHGDSEYNIMFGPDICGPGTKKVHVIFNYKGKNVLINKDIRCKDDEFTHLYTLIVRPDNTYEVKIDNSQVESGSLEDDWDFLPPKKIKDPDASKPEDWDERAKIDDPTDSKPEDWDKPEHIPDPDAKKPEDWDEEMDGEWEPPVIQNPEYKGEWKPRQIDNPDYKGTWIHPEIDNPEYSPDPSIYAYDNFGVLGLDLWQVKSGTIFDNFLITNDEAYAEEFGNETWGVTKAAEKQMKDKQDEEQRLKEEEEDKKRKEEEEAEDKEDDEDKDEDEEDEEDKEEDEEEDVPGQAKDEL
modifications: bait human Fc-tagged dimer
B6: ADP280 (protein)
chain: TPPNAIVFTYGHLKVADMVKTGVIMNIIGVFCVFLAVNTWGRAIFDLDHFPDWANVTHIET
modifications: also: human Fc-tagged dimer
B7: ADP339 (protein)
chain: MASPFLVLAIGTCLTNSLVPEKEKDPKYWRDQAQETLKYALELQKLNTNVAKNVIMFLGDGMGVSTVTAARILKGQLHHNPGEETRLEMDKFPFVALSKTYNTNAQVPDSAGTATAYLCGVKANEGTVGVSAATERSRCNTTQGNEVTSILRWAKDAGKSVGIVTTTRVNHATPSAAYAHSADRDWYSDNEMPPEALSQGCKDIAYQLMHNIRDIDVIMGGGRKYMYPKNKTDVEYESDEKARGTRLDGLDLVDTWKSFKPRYKHSHFIWNRTELLTLDPHNVDYLLGLFEPGDMQYELNRNNVTDPSLSEMVVVAIQILRKNPKGFFLLVEGGRIDHGHHEGKAKQALHEAVEMDRAIGQAGSLTSSEDTLTVVTADHSHVFTFGGYTPRGNSIFGLAPMLSDTDKKPFTAILYGNGPGYKVVGGERENVSMVDYAHNNYQAQSAVPLRHETHGGEDVAVFSKGPMAHLLHGVHEQNYVPHVMAYAACIGANLGHCAPASS
modifications: bait human Fc-tagged dimer
B8: ADP295 (protein)
chain: MALLLCFVLLCGVVDFARSLSITTPEEMIEKAKGETAYLPCKFTLSPEDQGPLDIEWLISPADNQKVDQVIILYSGDKIYDDYYPDLKGRVHFTSNDLKSGDASINVTNLQLSDIGTYQCKVKKAPGVANKKIHLVVLVKPSGARCYVDGSEEIGSDFKIKCEPKEGSLPLQYEWQKLSDSQKMPTSWLAEMTSSVISVKNASSEYSGTYSCTVRNRVGSDQCLLRLNVVPPSNKAG
modifications: bait human Fc-tagged dimer
B9: ADP380 (protein)
chain: VLEEVQQVRRSHQDFSRQREELGQGLQGVEQKVQSLQATFGTFESILRSSQHKQDLTEKAVKQGESEVSRISEVLQKLQNEILKDLSDGIHVVKDARERDFTSLENTVEERLTELTKSINDNIAIFTEVQKRSQKEINDMKAKVASLEESEGNKQDLKALKEAVKEIQTSAKSREWDMEALRSTLQTMESDIYTEVRELVSLKQEQQAFKEAADTERLALQALTEKLLRSEESVSRLPEEIRRLEEELRQLKSDSHGPKEDGGFRHSEAFEALQQKSQGLDSRLQHVEDGVLSMQVASARQTESLESLLSKSQEHEQRLAALQGRLEGLGSSEADQDGLASTVRSLGETQLVLYGDVEELKRSVGELPSTVESLQKVQEQVHTLLSQDQAQAARLPPQDFLDRLSSLDNLKASVSQVEADLKMLRTAVDSLVAYSVKIETNENNLESAKGLLDDLRNDLDRLFVKVEKIHEKV
modifications: bait human Fc-tagged dimer
B10: ADP385 (protein)
chain: TIKANSEACRDGLRAVMECRNVTHLLQQELTEAQKGFQDVEAQAATCNHTVMALMASLDAEKAQGQKKVEELEGEITTLNHKLQDASAEVERLRRENQVLSVRIADKKYYPSSQDSSSAAAPQLLIVLLGLSALLQ
modifications: bait human Fc-tagged dimer
B11: ADP370 (protein)
chain: MICQKFCVVLLHWEFIYVITAFNLSYPITPWRFKLSCMPPNSTYDYFLLPAGLSKNTSNSNGHYETAVEPKFNSSGTHFSNLSKTTFHCCFRSEQDRNCSLCADNIEGKTFVSTVNSLVFQQIDANWNIQCWLKGDLKLFICYVESLFKNLFRNYNYKVHLLYVLPEVLEDSPLVPQKGSFQMVHCNCSVHECCECLVPVPTAKLNDTLLMCLKITSGGVIFQSPLMSVQPINMVKPDPPLGLHMEITDDGNLKISWSSPPLVPFPLQYQVKYSENSTTVIREADKIVSATSLLVDSILPGSSYEVQVRGKRLDGPGIWSDWSTPRVFTTQDVIYFPPKILTSVGSNVSFHCIYKKENKIVPSKEIVWWMNLAEKIPQSQYDVVSDHVSKVTFFNLNETKPRGKFTYDAVYCCNEHECHHRYAELYVIDVNINISCETDGYLTKMTCRWSTSTIQSLAESTLQLRYHRSSLYCSDIPSIHPISEPKDCYLQSDGFYECIFQPIFLLSGYTMWIRINHSLGSLDSPPTCVLPDSVVKPLPPSSVKAEITINIGLLKISWEKPVFPENNLQFQIRYGLSGKEVQWKMYEVYDAKSKSVSLPVPDLCAVYAVQVRCKRLDGLGYWSNWSNPAYTVVMDIKVPMRGPEFWRIINGDTMKKEKNVTLLWKPLMKNDSLCSVQRYVINHHTSCNGTWSEDVGNHTKFTFLWTEQAHTVTVLAINSIGASVANFNLTFSWPMSKVNIVQSLSAYPLNSSCVIVSWILSPSDYKLMYFIIEWKNLNEDGEIKWLRISSSVKKYYIHDHFIPIEKYQFSLYPIFMEGVGKPKIINSFTQDDIEKHQSDA
modifications: bait human Fc-tagged dimer
B12: ADP318 (protein)
chain: MAGRLWPLLLSILTATAVPGPSLRRPSRELDATPRMTIPYEELSGTRHFKGQAQNYSTLLLEEASARLLVGARGALFSLSANDIGDGAHKEIHWEASPEMQSKCHQKGKNNQTECFNHVRFLQRLNSTHLYACGTHAFQPLCAAIDAEAFTLPTSFEEGKEKCPYDPARGFTGLIIDGGLYTATRYEFRSIPDIRRSRHPHSLRTEETPMHWLNDAEFVFSVLVRESKASAVGDDDKVYYFFTERATEEGSGSFTQSRSSHRVARVARVCKGDLGGKKILQKKWTSFLKARLICHIPLYETLRGVCSLDAETSSRTHFYAAFTLSTQWKTLEASAICRYDLAEIQAVFAGPYMEYQDGSRRWGRYEGGVPEPRPGSCITDSLRSQGYNSSQDLPSLVLDFVKLHPLMARPVVPTRGRPLLLKRNIRYTHLTGTPVTTPAGPTYDLLFLGTADGWIHKAVVLGSGMHIIEETQVFRESQSVENLVISLLQHSLYVGAPSGVIQLPLSSCSRYRSCYDCILARDPYCGWDPGTHACAAATTIANRTALIQDIERGNRGCESSRDTGPPPPLKTRSVLRGDDVLLPCDQPSNLARALWLLNGSMGLSDGQGGYRVGVDGLLVTDAQPEHSGNYGCYAEENGLRTLLASYSLTVRPATPAPAPKAPATPGAQLAPDVRL
modifications: bait human Fc-tagged dimer
B13: ADP098 (protein)
chain: RELPAQKWWHTGALYRIGDLQAFQGHGAGNLAGLKGRLDYLSSLKVKGLVLGPIHKNQKDDVAQTDLLQIDPNFGSKEDFDSLLQSAKKKSIRVILDLTPNYRGENSWFSTQVDTVATKVKDALEFWLQAGVDGFQVRDIENLKDASSFLAEWQNITKGFSEDRLLIAGTNSSDLQQILSLLESNKDLLLTSSYLSDSGSTGEHTKSLVTQYLNATGNRWCSWSLSQARLLTSFLPAQLLRLYQLMLFTLPGTPVFSYGDEIGLDAAALPGQPMEAPVMLWDESSFPDIPGAVSANMTVKGQSEDPGSLLSLFRRLSDQRSKERSLLHGDFHAFSAGPGLFSYIRHWDQNERFLVVLNFGDVGLSAGLQASDLPASASLPAKADLLLSTQPGREEGSPLELERLKLEPHEGLLLRFPYAA
modifications: bait human Fc-tagged dimer

Molecular target: Circumsporozoite protein (CSP) (Plasmodium falciparum (isolate 3D7), UniProt Q7K740)
Sequence (Q7K740 19-374): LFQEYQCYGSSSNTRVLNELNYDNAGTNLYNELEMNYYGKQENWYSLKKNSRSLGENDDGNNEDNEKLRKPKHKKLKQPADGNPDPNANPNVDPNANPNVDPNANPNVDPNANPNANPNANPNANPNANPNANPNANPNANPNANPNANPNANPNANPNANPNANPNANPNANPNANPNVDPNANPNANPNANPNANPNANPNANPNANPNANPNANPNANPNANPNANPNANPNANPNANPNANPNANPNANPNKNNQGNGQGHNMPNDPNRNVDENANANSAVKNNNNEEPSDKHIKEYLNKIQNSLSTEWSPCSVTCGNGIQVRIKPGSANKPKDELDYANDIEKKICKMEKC
Experiment: AVEXIS screen signal:noise (double-corrected)

Binder	binding score
B1	1.2
B2	0.991
B3	1.3
B4	1.88
B5	1.67
B6	0.749
B7	1.02
B8	1.09
B9	0.68
B10	0.643
B11	1.01
B12	3.59
B13	1.12
